Experimental data from the DeepSol protein solubility set.

Experiment: soluble on expression in E. coli; label from the status in PepcDB or PDB records

Row | Sequence | soluble on expression in E. coli
1 | MNLDAPRVLVLNAAYEVLGLASIKRAVLLVLGGGAEMVSESGLYLNTPSTRIPVPSVVRLKRMVRRRPGRVPLNRRNVLRRDRYTCQYCGQKGGELTVDHVLPKSRGGKSTWDNLVAACRSCNLRKGDRTPEEAGMRLLRPPKPPRVPLFLLDLKEVPPDWRPFVEGLLGLEHHHHHH | not soluble
2 | MNLEHHSNHYQPTCSIEALQARAKLYQTIRTFFAERGVLEVETPIISQAGVTDVHLASVKALRHIEGKERTQYLQTSPEFAMKRLLASGSGPIYQLCKVFRDDEHGRKHNSEFTMLEWYRPEFDLKDLMHETADLLETCLKQRFDEIRPMILSYKHAFQDRLEINPLQATLKQLKDTADRVGLNLDLGNDRLAYIDLLFSHIVEPSLGFDTPVFLTDFPPEMASLAKVRIDEDGEEVAARFEVYIEGLELANAYDELLDANILRARFEADNLERKLQGLAEMPLDENLLAALPHMPACAGIALGVDRLLMIATRQLKIEQVIAFPAAIA | not soluble
3 | MNLESITVVLPTRNEAGNIGAFLASLPQAVHLIVVDASEDETPDIIQRERPARTQVLRRRSTITQARQLGAEAALTDWLLFTDADIVFPDGYFDALERVMDAAVVYGPKLSRDRFAAYYRWFGYGQQCSHWLGIPAATGSNLLVRKDALIAVGGFDPALVCNEDSELVWRIKRAGYRIRFEPSLPVYARDHRRLDSGLWRKTCHSVFRCALLYWDLMPARWRGADWGYWSPQQSGRAPGVSRVELEHHHHHH | not soluble
4 | MNLGTLVSETRNPQTMDLDALPTPELVKRFNEQDTLVAEAVKATLPDVARAVDAAAAALKSGGRIIYMGAGTSGRLGVLDASECPPTFGVPHGLVVGLIAGGPGALLKAVEGAEDSQQAGEDDLVALNLQEQDLVVGLAASGRTPYVIGGLRYARQSGCTTVAVSCNPDSPIAREANIAISPVVGPEALTGSTRLKSGTAQKMVLNMISTGAMVKFGKVYQNLMVDMKATNVKLVDRACRMVVEATGIGREEAEALLKQTDFEVKPAILMALTGLDAAAAREKLAAHQGFLRAALEH | not soluble
5 | MNLHTKTWVQRLPVPIDVAWDFFSQPGNLARITPPEMMLKAEGGNAGTAIYEGMKLNFVLYPFMMIPVRWTTEIMKVSKPDFFEDRQLSGPYEQWYHRHLFRDIEGGTEMTDIVEYALPFDLFGEVVEALIVGPRLDEVFEYRRCRVAEILGEMASETRLEHHHHHH | soluble
6 | MNLIEKTREFAATFHEGEPSSHDMSHINRVEALCMEIQKEEGGDLLILSLAALLHDVGVIKEHEEGGDHALYSSEIAIEFLSRAGVEMKTIEAVAYCIQTHRFSGGKRPETVEARILQDADRLDALGAIGIFRSILSMGALRMLKHTTGLDKGSSKKTVYIEDPVEGFNEYMRYKPFTIPERLNTVTAKRIAGERLKIMHIYLEALNLEAGNGKHKPLEHHHHHH | soluble
7 | MNLKDPICAIATPPGKGAIGVVRLSGEGALEIAARVWRGKDPRRLKGGRFALGEVVDPKTGEAIDQAILLVFRAPRSYTGEDLVEFQTHGSPAVLRRVMEVLVAEGARPAGRGEFTFRAYLNGKMDLAQAEAVLALIEAEGELARRQALRALEGALSRRIEALENRLLNLLAHIQALLDYPEEGVEPLEAERTIREVLAEVEALLAQAKASRLAQKGARLALIGAPNAGKSSLLNALLGYERALVSPIPGTTRDYLEAPLELFGIPLVAVDTAGVRETEDPVERMGVERALGIAEEADLVLYVVDRSQPKPAPPPLPWARTLKVATKSDLPPAWEDPEFLPVSSLTGEGLDRLKEAVREALLGREGGEVLLTERQVEALLRARERLEEALSLPEDLMGLALEEAARALALLTGKEVAEEVVARVFQNFCVGK | soluble
8 | MNLMTTITGVVLAGGKARRMGGVDKGLLELNGKPLWQHVADALMTQLSHVVVNANRHQEIYQASGLKVIEDSLADYPGPLAGMLSVMQQEAGEWFLFCPCDTPYIPPDLAARLNHQRKDAPVVWVHDGERDHPTIALVNRAIEPLLLEYLQAGERRVMVFMRLAGGHAVDFSDHKDAFVNVNTPEELARWQEKRSHHHHHH | soluble
9 | MNLYRSRNFYARIRGDRALFTNPATKGGSERSSYSVPTRQALQGIIDGIYHKPTFTNVITEVKVVNQIQTELHGVRALLHDYSADLSYVSYLSDVEYLVKFHFIWNENREDLIQDRLPKKHEAIMERSIRKGGRRDIFLGTRECFGLVDEISQEEYETIPSYYNGVTIDLGIMFHSFAYPTSKDTPLKSYFTKTVMENGAIKFKPQSECEIVNTLSSYAFKSLGQLKSVDDEYVDDEYEEYEAMEKGEG | soluble
